Test results as given in patent US20160083712A1.
pKd: −log10 of the molar value.

Biological target: CSN5 WT, soluble MPN domain construct of Example 2 (Homo sapiens)
Test: ITC

Chain of CSN5 WT, soluble MPN domain construct of Example 2 (Homo sapiens) (O35864 1-257 limits assumed): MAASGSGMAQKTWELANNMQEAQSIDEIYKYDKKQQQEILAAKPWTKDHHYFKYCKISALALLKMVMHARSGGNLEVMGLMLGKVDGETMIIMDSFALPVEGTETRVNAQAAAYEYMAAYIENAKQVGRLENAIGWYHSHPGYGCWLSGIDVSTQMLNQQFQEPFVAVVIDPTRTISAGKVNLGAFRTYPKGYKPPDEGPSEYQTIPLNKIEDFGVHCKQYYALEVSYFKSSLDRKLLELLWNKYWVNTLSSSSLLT

pKd: 5.30 to 6.00
Substance: CSN6, soluble MPN domain construct of Example 2 (from UniProt Q7L5N1 31-211)
